Source: US20260207767A1 (ANAVEON, published 2026)

T1: IL-2R CD122-CD132 on Jurkat-PD1+CD122+ cells (UniProt P14784 27-551; P31785 23-369)
T1 sequence (looked up) 1: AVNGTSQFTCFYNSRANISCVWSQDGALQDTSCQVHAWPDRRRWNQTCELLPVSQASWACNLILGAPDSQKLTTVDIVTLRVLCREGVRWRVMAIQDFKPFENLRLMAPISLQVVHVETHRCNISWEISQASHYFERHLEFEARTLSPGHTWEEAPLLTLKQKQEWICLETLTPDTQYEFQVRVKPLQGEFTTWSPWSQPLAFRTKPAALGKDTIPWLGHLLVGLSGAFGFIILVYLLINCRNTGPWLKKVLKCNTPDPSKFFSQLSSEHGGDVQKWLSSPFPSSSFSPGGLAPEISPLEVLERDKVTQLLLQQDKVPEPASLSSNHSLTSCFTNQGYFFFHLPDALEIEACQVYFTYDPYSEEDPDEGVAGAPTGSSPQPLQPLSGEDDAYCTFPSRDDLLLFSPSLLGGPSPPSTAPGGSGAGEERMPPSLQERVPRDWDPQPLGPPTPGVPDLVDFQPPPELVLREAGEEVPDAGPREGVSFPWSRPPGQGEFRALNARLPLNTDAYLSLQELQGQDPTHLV
T1 sequence (looked up) 2: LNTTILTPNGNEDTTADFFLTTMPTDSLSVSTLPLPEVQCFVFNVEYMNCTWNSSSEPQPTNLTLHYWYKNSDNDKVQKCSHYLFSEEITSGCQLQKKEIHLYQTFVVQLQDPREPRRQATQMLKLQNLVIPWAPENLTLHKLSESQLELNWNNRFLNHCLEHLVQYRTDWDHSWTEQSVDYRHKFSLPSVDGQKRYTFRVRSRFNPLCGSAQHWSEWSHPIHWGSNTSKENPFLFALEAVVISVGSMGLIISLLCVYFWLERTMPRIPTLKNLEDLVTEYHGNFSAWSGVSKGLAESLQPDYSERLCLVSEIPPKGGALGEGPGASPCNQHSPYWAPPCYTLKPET


Target: T1, IL-2R CD122-CD132 on Jurkat-PD1+CD122+ …
Experiment: cell-based or functional assay

Row | EC50 value for pSTAT5 induction, Jurkat-PD-1+CD122+ cells | Binder
1 | 60 pM | MDS446 (bispecific antibody, human IgG1, kappa, L234A L235A) heavy 1: QVQLVQSGAEVKKPGASVKVSCKASGYTFTNFYIHWVRQAPGQGLEWMGSIYPNYGITAYNQKFKDRVTMTVDTSTSTAYMELRSLRSDDTAVYYCARGYSYAMDYWGQGTTVTVSSASTKGPSVFPLAPSSKSTSGGTAALGCLVKDYFPEPVTVSWNSGALTSGVHTFPAVLQSSGLYSLSSVVTVPSSSLGTQTYICNVNHKPSNTKVDKRVEPKSCDKTHTCPPCPAPEAAGGPSVFLFPPKPKDTLMISRTPEVTCVVVDVSHEDPEVKFNWYVDGVEVHNAKTKPREEQYNSTYRVVSVLTVLHQDWLNGKEYKCKVSNKALAAPIEKTISKAKGQPREPQVYTLPPSREEMTKNQVSLTCLVKGFYPSDIAVEWESNGQPENNYKTTPPVLDSDGSFFLTSKLTVDKSRWQQGNVFSCSVMHEALHNHYTQKSLSLSPGK light: DIQMTQSPSSVSASVGDRVTITCSASQGISGDLNWYQQKPGKAPKLLIYHTSQLHSDVPSRFSGSGSGTDFTLTISSLQPEDFATYYCQGYSKDLLTFGGGTKLEIKRTVAAPSVFIFPPSDEQLKSGTASVVCLLNNFYPREAKVQWKVDNALQSGNSQESVTEQDSKDSTYSLSSTLTLSKADYEKHKVYACEVTHQGLSSPVTKSFNRGEC heavy 2: AIRLTQSPSSFSASTGDRVTITCKASQSVDYGGGNFHLRPRDLISNINVIVLELKGSETTFMCEYADETATIVEFLNRWITFSQSIISTLTPTSSSTKKTQLQLEHLLLDLQMILNGINNYKNPKLTRMLTFKFYMPKKATELKHLQCLEEELKPLEEVLNLAQSKGGGGDSYMNWYQQKPGKAPKLLIYAASNLESGVPSRFSGSGSGTDFTLTISSLQSEDFATYYCQQSNEDPYTFGGGTKVEIKGGGGSGGGGSGGGGSEVQLVQSGAEVKKPGESLKISCKGSGYAFTNYLIEWVRQMPGKGLEWMGVINPGSGGTNYNEKFKGQVTISADKSISTAYLQWSSLKASDTAMYYCARWRGEGYYAYFDVWGQGTTVTVSSGGGGSGGGGSQVQLVQSGAEVKKPGASVKVSCKASGYTFTNFYIHWVRQAPGQGLEWMGSIYPNYGITAYNQKFKDRVTMTVDTSTSTAYMELRSLRSDDTAVYYCARGYSYAMDYWGQGTTVTVSSASTKGPSVFPLAPSSKSTSGGTAALGCLVKDYFPEPVTVSWNSGALTSGVHTFPAVLQSSGLYSLSSVVTVPSSSLGTQTYICNVNHKPSNTKVDKRVEPKSCDKTHTCPPCPAPEAAGGPSVFLFPPKPKDTLMISRTPEVTCVVVDVSHEDPEVKFNWYVDGVEVHNAKTKPREEQYNSTYRVVSVLTVLHQDWLNGKEYKCKVSNKALAAPIEKTISKAKGQPREPQVYTLPPSREEMTKNQVSLYCLVKGFYPSDIAVEWESNGQPENNYKTTPPVLDSDGSFFLYSKLTVDKSRWQQGNVFSCSVMHEALHNHYTQKSLSLSPGK
2 | 60 pM | TMU471 (bispecific antibody, human IgG1, kappa, L234A L235A) heavy 1: QVQLVQSGAEVKKPGASVKVSCKASGYTFTNFYIHWVRQAPGQGLEWMGRIYPNYGITAYNQKFKDRVTMTVDTSTSTAYMELRSLRSDDTAVYYCARGYSYAMDYWGQGTTVTVSSASTKGPSVFPLAPSSKSTSGGTAALGCLVKDYFPEPVTVSWNSGALTSGVHTFPAVLQSSGLYSLSSVVTVPSSSLGTQTYICNVNHKPSNTKVDKRVEPKSCDKTHTCPPCPAPEAAGGPSVFLFPPKPKDTLMISRTPEVTCVVVDVSHEDPEVKFNWYVDGVEVHNAKTKPREEQYNSTYRVVSVLTVLHQDWLNGKEYKCKVSNKALAAPIEKTISKAKGQPREPQVYTLPPSREEMTKNQVSLTCLVKGFYPSDIAVEWESNGQPENNYKTTPPVLDSDGSFFLTSKLTVDKSRWQQGNVFSCSVMHEALHNHYTQKSLSLSPGK light: DIQMTQSPSSVSASVGDRVTITCSASQGISGDLNWYQQKPGKAPKLLIYHTSQRHSDVPSRFSGSGSGTDFTLTISSLQPEDFATYYCQGYSKDLLTFGGGTKLEIKRTVAAPSVFIFPPSDEQLKSGTASVVCLLNNFYPREAKVQWKVDNALQSGNSQESVTEQDSKDSTYSLSSTLTLSKADYEKHKVYACEVTHQGLSSPVTKSFNRGEC heavy 2: AIRLTQSPSSFSASTGDRVTITCKASQSVDYGGGNFHLRPRDLISNINVIVLELKGSETTFMCEYADETATIVEFLNRWITFSQSIISTLTPTSSSTKKTQLQLEHLLLDLQMILNGINNYKNPKLTRMLTFKFYMPKKATELKHLQCLEEELKPLEEVLNLAQSKGGGGDSYMNWYQQKPGKAPKLLIYAASNLESGVPSRFSGSGSGTDFTLTISSLQSEDFATYYCQQSNEDPYTFGGGTKVEIKGGGGSGGGGSGGGGSEVQLVQSGAEVKKPGESLKISCKGSGYAFTNYLIEWVRQMPGKGLEWMGVINPGSGGTNYNEKFKGQVTISADKSISTAYLQWSSLKASDTAMYYCARWRGEGYYAYFDVWGQGTTVTVSSGGGGSGGGGSQVQLVQSGAEVKKPGASVKVSCKASGYTFTNFYIHWVRQAPGQGLEWMGRIYPNYGITAYNQKFKDRVTMTVDTSTSTAYMELRSLRSDDTAVYYCARGYSYAMDYWGQGTTVTVSSASTKGPSVFPLAPSSKSTSGGTAALGCLVKDYFPEPVTVSWNSGALTSGVHTFPAVLQSSGLYSLSSVVTVPSSSLGTQTYICNVNHKPSNTKVDKRVEPKSCDKTHTCPPCPAPEAAGGPSVFLFPPKPKDTLMISRTPEVTCVVVDVSHEDPEVKFNWYVDGVEVHNAKTKPREEQYNSTYRVVSVLTVLHQDWLNGKEYKCKVSNKALAAPIEKTISKAKGQPREPQVYTLPPSREEMTKNQVSLYCLVKGFYPSDIAVEWESNGQPENNYKTTPPVLDSDGSFFLYSKLTVDKSRWQQGNVFSCSVMHEALHNHYTQKSLSLSPGK
3 | 70 pM | QAB373 (bispecific antibody, human IgG1, kappa, L234A L235A) heavy 1: QVQLVQSGAEVKKPGASVKVSCKASGYTFTNFYIHWVRQAPGQGLEWMGSIYPNYGITAYNQKFKDRVTMTVDTSTSTAYMELRSLRSDDTAVYYCARGYSYAMDYWGQGTTVTVSSASVAAPSVFIFPPSDEQLKSGTASVVCLLNNFYPREAKVQWKVDNALQSGNSQESVTEQDSKDSTYSLSSTLTLSKADYEKHKVYACEVTHQGLSSPVTKSFNRGECDKTHTCPPCPAPEAAGGPSVFLFPPKPKDTLMISRTPEVTCVVVDVSHEDPEVKFNWYVDGVEVHNAKTKPREEQYNSTYRVVSVLTVLHQDWLNGKEYKCKVSNKALAAPIEKTISKAKGQPREPQVYTLPPSREEMTKNQVSLTCLVKGFYPSDIAVEWESNGQPENNYKTTPPVLDSDGSFFLTSKLTVDKSRWQQGNVFSCSVMHEALHNHYTQKSLSLSPGK light 1: DIQMTQSPSSVSASVGDRVTITCSASQGISGDLNWYQQKPGKAPKLLIYHTSQLHSDVPSRFSGSGSGTDFTLTISSLQPEDFATYYCQGYSKDLLTFGGGTKLEIKSSASTKGPSVFPLAPSSKSTSGGTAALGCLVKDYFPEPVTVSWNSGALTSGVHTFPAVLQSSGLYSLSSVVTVPSSSLGTQTYICNVNHKPSNTKVDKRVEPKSC heavy 2: EVQLVQSGAEVKKPGESLKISCKGSGYAFTNYLIEWVRQMPGKGLEWMGVINPGSGGTNYNEKFKGQVTISADKSISTAYLQWSSLKASDTAMYYCARWRGEGYYAYFDVWGQGTTVTVSSASTKGPSVFPLAPSSKSTSGGTAALGCLVKDYFPEPVTVSWNSGALTSGVHTFPAVLQSSGLYSLSSVVTVPSSSLGTQTYICNVNHKPSNTKVDKRVEPKSCDKTHTCPPCPAPEAAGGPSVFLFPPKPKDTLMISRTPEVTCVVVDVSHEDPEVKFNWYVDGVEVHNAKTKPREEQYNSTYRVVSVLTVLHQDWLNGKEYKCKVSNKALAAPIEKTISKAKGQPREPQVYTLPPSREEMTKNQVSLYCLVKGFYPSDIAVEWESNGQPENNYKTTPPVLDSDGSFFLYSKLTVDKSRWQQGNVFSCSVMHEALHNHYTQKSLSLSPGK light 2: not shown
4 | 0.12 nM | RIB426 (bispecific antibody, human IgG1, kappa, L234A L235A) heavy 1: QVQLVQSGAEVKKPGASVKVSCKASGYTFTNFYIHWVRQAPGQGLEWMGRIYPNYGITAYNQKFKDRVTMTVDTSTSTAYMELRSLRSDDTAVYYCARGYSYAMDYWGQGTTVTVSSASVAAPSVFIFPPSDEQLKSGTASVVCLLNNFYPREAKVQWKVDNALQSGNSQESVTEQDSKDSTYSLSSTLTLSKADYEKHKVYACEVTHQGLSSPVTKSFNRGECDKTHTCPPCPAPEAAGGPSVFLFPPKPKDTLMISRTPEVTCVVVDVSHEDPEVKFNWYVDGVEVHNAKTKPREEQYNSTYRVVSVLTVLHQDWLNGKEYKCKVSNKALAAPIEKTISKAKGQPREPQVYTLPPSREEMTKNQVSLTCLVKGFYPSDIAVEWESNGQPENNYKTTPPVLDSDGSFFLTSKLTVDKSRWQQGNVFSCSVMHEALHNHYTQKSLSLSPGK light 1: DIQMTQSPSSVSASVGDRVTITCSASQGISGDLNWYQQKPGKAPKLLIYHTSQRHSDVPSRFSGSGSGTDFTLTISSLQPEDFATYYCQGYSKDLLTFGGGTKLEIKSSASTKGPSVFPLAPSSKSTSGGTAALGCLVKDYFPEPVTVSWNSGALTSGVHTFPAVLQSSGLYSLSSVVTVPSSSLGTQTYICNVNHKPSNTKVDKRVEPKSC heavy 2: EVQLVQSGAEVKKPGESLKISCKGSGYAFTNYLIEWVRQMPGKGLEWMGVINPGSGGTNYNEKFKGQVTISADKSISTAYLQWSSLKASDTAMYYCARWRGEGYYAYFDVWGQGTTVTVSSASTKGPSVFPLAPSSKSTSGGTAALGCLVKDYFPEPVTVSWNSGALTSGVHTFPAVLQSSGLYSLSSVVTVPSSSLGTQTYICNVNHKPSNTKVDKRVEPKSCDKTHTCPPCPAPEAAGGPSVFLFPPKPKDTLMISRTPEVTCVVVDVSHEDPEVKFNWYVDGVEVHNAKTKPREEQYNSTYRVVSVLTVLHQDWLNGKEYKCKVSNKALAAPIEKTISKAKGQPREPQVYTLPPSREEMTKNQVSLYCLVKGFYPSDIAVEWESNGQPENNYKTTPPVLDSDGSFFLYSKLTVDKSRWQQGNVFSCSVMHEALHNHYTQKSLSLSPGK light 2: not shown
